This is an account of results in paper PMC7782793, “Hydroxamic acid-modified peptide microarrays for profiling isozyme-selective interactions and inhibition of histone deacetylases” (Nature Communications, 2021).

Starred links: 1 amine or outer side, 2 acyl side, 3 side chain; linkers in the order of their positions; H or OH if unused. Non-standard residues stand in square brackets, D forms with d. Primed or numbered codes have the meaning given here. No end group written: not given here. Asuha″ = L-2-amino-8-(hydroxyamino)-8-oxooctanoic acid, O=C(CCCCC[C@H](N[*:1])C(=O)[*:2])NO

In this assay the target is T1, HDAC6 (histone deacetylase 6) (human, UniProt Q9UBN7 1-1215).
T1 construct: HDAC6, human, full length; source: bought: BPS Bioscience, cat. #50056
T1 sequence (looked up): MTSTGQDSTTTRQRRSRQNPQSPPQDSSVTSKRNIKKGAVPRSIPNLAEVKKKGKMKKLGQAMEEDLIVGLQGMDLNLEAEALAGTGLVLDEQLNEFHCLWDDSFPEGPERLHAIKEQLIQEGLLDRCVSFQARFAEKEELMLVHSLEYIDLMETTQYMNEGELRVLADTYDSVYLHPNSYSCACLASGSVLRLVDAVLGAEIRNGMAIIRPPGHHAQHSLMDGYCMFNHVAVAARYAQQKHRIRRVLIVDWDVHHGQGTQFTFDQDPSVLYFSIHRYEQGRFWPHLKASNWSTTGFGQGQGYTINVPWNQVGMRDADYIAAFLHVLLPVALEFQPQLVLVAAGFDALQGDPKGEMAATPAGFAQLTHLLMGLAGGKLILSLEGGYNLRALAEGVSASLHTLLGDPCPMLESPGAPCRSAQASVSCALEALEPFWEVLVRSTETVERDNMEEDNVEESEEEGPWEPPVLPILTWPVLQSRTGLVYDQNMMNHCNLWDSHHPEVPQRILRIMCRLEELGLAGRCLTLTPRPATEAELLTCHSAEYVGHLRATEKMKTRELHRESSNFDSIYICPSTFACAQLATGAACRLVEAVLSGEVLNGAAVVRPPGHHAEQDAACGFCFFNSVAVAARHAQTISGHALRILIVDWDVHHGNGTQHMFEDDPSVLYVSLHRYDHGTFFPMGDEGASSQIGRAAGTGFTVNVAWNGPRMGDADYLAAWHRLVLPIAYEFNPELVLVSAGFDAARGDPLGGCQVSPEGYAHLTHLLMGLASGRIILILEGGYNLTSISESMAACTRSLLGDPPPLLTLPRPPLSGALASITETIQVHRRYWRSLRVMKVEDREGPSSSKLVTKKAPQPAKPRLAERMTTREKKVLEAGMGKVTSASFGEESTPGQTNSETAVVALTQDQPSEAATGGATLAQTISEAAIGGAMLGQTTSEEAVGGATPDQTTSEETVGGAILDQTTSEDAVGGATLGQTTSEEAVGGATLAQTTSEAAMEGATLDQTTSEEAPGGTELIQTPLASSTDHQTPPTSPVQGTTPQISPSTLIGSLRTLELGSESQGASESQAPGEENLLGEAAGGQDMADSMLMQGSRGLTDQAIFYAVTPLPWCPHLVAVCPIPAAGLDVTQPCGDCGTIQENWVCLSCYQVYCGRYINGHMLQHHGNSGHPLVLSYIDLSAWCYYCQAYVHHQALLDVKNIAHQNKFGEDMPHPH
The assay is described as follows: fluorogenic enzyme inhibition assay; peptide in 5-fold dilution series with enzyme and fluorogenic substrate (Ac-Leu-Gly-Lys(Ac)-AMC or Ac-Leu-Gly-Lys(Tfa)-AMC), HEPES buffer pH 7.4, 30 min, 37 °C, trypsin development; Ki by the Cheng-Prusoff equation. To be noted: both partners purified.

As to KGGKGLG[Asuha″]GGAKRHR [peptide 1a (parent H4K12 Asuha peptide)], the affinity, expressed as Ki, was 5.31 ± 0.03 nM.
